B1: Amivantamab: Amivantamab (Janssen, Reference No.: LFS0L03), bispecific antibody targeting EGFR and MET (antibody, chains of the INN, looked up, V domains shown)
VH: QVQLVESGGGVVQPGRSLRLSCAASGFTFSTYGMHWVRQAPGKGLEWVAVIWDDGSYKYYGDSVKGRFTISRDNSKNTLYLQMNSLRAEDTAVYYCARDGITMVRGVMKDYFDYWGQGTLVTVSS
VL: AIQLTQSPSSLSASVGDRVTITCRASQDISSALVWYQQKPGKAPKLLIYDASSLESGVPSRFSGSESGTDFTLTISSLQPEDFATYYCQQFNSYPLTFGGGTKVEIK
VH2: QVQLVQSGAEVKKPGASVKVSCETSGYTFTSYGISWVRQAPGHGLEWMGWISAYNGYTNYAQKLQGRVTMTTDTSTSTAYMELRSLRSDDTAVYYCARDLRGTNYFDYWGQGTLVTVSS
VL2: DIQMTQSPSSVSASVGDRVTITCRASQGISNWLAWFQHKPGKAPKLLIYAASSLLSGVPSRFSGSGSGTDFTLTISSLQPEDFATYYCQQANSFPITFGQGTRLEIK
B2: Telisotuzumab analog-ADC (conjugate, chains of the INN, looked up)
VH: QVQLVQSGAEVKKPGASVKVSCKASGYIFTAYTMHWVRQAPGQGLEWMGWIKPNNGLANYAQKFQGRVTMTRDTSISTAYMELSRLRSDDTAVYYCARSEITTEFDYWGQGTLVTVSS
VL: DIVMTQSPDSLAVSLGERATINCKSSESVDSYANSFLHWYQQKPGQPPKLLIYRASTRESGVPDRFSGSGSGTDFTLTISSLQAEDVAVYYCQQSKEDPLTFGGGTKVEIK
modifications: antibody-drug conjugate payload

Assays:
[1] = tested on: patient-derived ampullary tumor fragments; assay: Human ampullary carcinoma PDX model; assay type: in vivo, B-NDG mice; conditions: 10 mg/kg i.v. BIW x4
Description: The ADCs were tested for their effect in human ampullary carcinoma PDX model.
The mice were then injected with PBS, ADCs or Amivantamab (Janssen, Cat #: LFS0L03) by intravenous (i.v.) administration.

NCI-H1975 cells = assay: NCI-H1975 xenograft in Balb/c nude mice; assay type: in vivo; conditions: 10 mg/kg, BIW, 4 administrations, i.v.
Description: The mice were then injected with PBS, E-6C4-M-2F II-ADC (1.5 mg/kg, 3 mg/kg or 6 mg/kg, QW, 2 administrations in total) or Amivantamab (Janssen, Reference No.: LFS0L03) (10 mg/kg, BIW, 4 administrations in total) by intravenous (i.v.) administration.

[2] = tested on: patient-derived gastric tumor fragments; assay: Human gastric cancer PDX model; assay type: in vivo, B-NDG mice; conditions: 10 mg/kg i.v. BIW x6
Description: The mice were then injected with PBS, ADCs or Amivantamab (Janssen, Reference No.: LFS01L03) by intravenous (i.v.) administration.

NUGC-4 cells = assay: NUGC-4 xenograft model (gastric cancer); assay type: in vivo, B-NDG mice; conditions: 3 mg/kg i.v. QW x2

Row | Molecule | Tumor volume Day 14 [1] | Tumor volume Day 21 [1] | TGI (%) ([1]; Day 21) | Tumor volume Day 0 ([1]; day of grouping) | TGI (NCI-H1975 cells) | Tumor volume Day 28 [2] | Tumor volume Day 56 [2] | TGI (%) ([2]; Day 56) | Tumor volume Day 0 ([2]; day of grouping) | Survival ([2]; surviving/total mice) | Tumor volume Day 14 (NUGC-4 cells) | TGI (%) (NUGC-4 cells; Day 28) | Tumor volume Day 0 (NUGC-4 cells; day of grouping) | Tumor volume Day 28 (NUGC-4 cells; end of experiment) | Tumor-free (Day 28) (NUGC-4 cells; number of tumor-free mice/total)
1 | B1 | 756 ± 78 mm^3 | 1047 ± 104 mm^3 | 8% | 273 ± 13 mm^3 | 12.9% | 40 ± 6 mm^3 | 643 ± 391 mm^3 | 86.3% | 262 ± 24 mm^3 | 5/5 |  |  |  |  | 
2 | B2 |  |  |  |  |  |  |  |  |  |  | 60 ± 10 mm^3 | 108.1% | 198 ± 14 mm^3 | 88 ± 67 mm^3 | 0/5

Source: patent US20250382373A1, “ANTI-EGFR/MET ANTIBODIES AND USES THEREOF” (Biocytogen Pharmaceuticals (Beijing) Co., Ltd., priority 2022, published 2025)
